Measured values as given in the DeepSol protein solubility set.

experiment: soluble on expression in E. coli; label from the status in PepcDB or PDB records

Question: For “MGSDKIHHHHHHVPPLRLAIVGDIHDQWTLADQQLLLQLQPDLTLFVGDFGNESLALVQAIAAIPLRKAVILGNHDAWYTATRWRRSQCPYDWMRENRFEQQLEALGGLHIGYGRLDFPEWNLSVVGGRPCSAGGSQWQHRRFYRHYYQVGSFPESAQRIADCAIASPCDRVLFLAHCGPSGLGDQPEDPCGKDWSRPGGDFGDPDLAMAIAQVQAQKVVPLVCFGHMHHRLRHRRDRPRRSWHRDTAGTVYLNAAASPRILKAQQTTLHHLLWVELSDSLVTAQQTWWTPAGVLVQSEELPLVPQPA”, which “soluble on expression in E. coli” value is on record?
Answer: not soluble

Question: Which “soluble on expression in E. coli” value does the source give for “MGSDKIHHHHHHVPRVRTVKEDHRAGVWCARGMTGLLRRLHAVLDEFNAAYPWDHNAYYHRWILRQLPPRFGRALDAGSGSGDLARLLAGRADRVCGIDIDPVITARARELTDPAAPVVFTVGDVLTDTPAGPYDVVTCVAAVHHMPLAEALTCFRDLLAPGGTLVVVGLYRAHDPIDVLLDGVSVVLNPLIGWVRHRGRRAPRPVSMTAVTTPATMTFAEIVAEARRVLPRARLRRRLLWRYTLVWRKP” here?
Answer: not soluble

Question: With “MGSDKIHHHHHHVRIESIRTKNFKILKDTTIRNIPAMAIFLGANGSGKSTFFDIFGFLHDCLTDNVRAALLKRGGFKEVVSRGQSGPIEFEIKFRSAPGEPLVTYELHINLDDKGLPIVSKELLKYRRGQKGRPWHFLDFSNGVGHAIVNESEYGKPGVQEAREQQTLDSPDILAIKGLGQFQKYKQIASFRRLIEGWHVSDFRIESARSTNDAGYAEHLSATGDNLALVTQFMHEHYSDRFQQVLEKIAQRVPGIKSVEAKETADGRIVLRFQNEEFKDPFISRYVSDGTLKMFAYLILLYDPTPHPLLCIEEPENQLHPDLLLELAEEFRAYASNGGQVFISTHSPDFVNAVQLEELFWLCQGNNGFSKVVRASDEPLLQSLVAEGDLPGSLWKQGFFEGAGPL” as the sequence, how does the “soluble on expression in E. coli” value read?
Answer: not soluble

Question: Which “soluble on expression in E. coli” value does the source give for “MGSDKIHHHHHHVSTSVTKRPLTLVLASPRGFCAGVDRAIHIVERALEKYGAPVYVRHEIVHNRFVVESLAQKGAVFVEELDEVPDEAAVVFSAHGVPKTVPAEADRRGLTSLDATCPLVTKVHREAELHHAMGRQIIMIGHAGHPEVIGTIGQVPDGTVLLVGTPEEAEKVAPKNASMLAYITQTTLSVDDAAAVTEVLQRRFPEIVGPKREDICYATTNRQAAVKTIAPKCEALMVIGSPNSSNSSRLVEVAARAGCARSVLVQRAAEVDWSLLDGVDRLGITAGASAPEILVEEVVAAARERFDVTIEEIRVTTETVTFKLPQALSE” here?
Answer: not soluble

Question: Which “soluble on expression in E. coli” value does the source give for “MGSDKIHHHHHHVTDHGFSFCAHAEQYAIIGSLSQLETSDNRDCDIRRPALNRCMAEKGTLRPEAAQIFQRLEALGLKQRELAQALGIEENKISKVRAGERQFKGAELLAAYEWLDQREAEAHMPRLSRVAAVGQQVIPATPVEGEVVQIQKLDLSLSMGPGTLIDGYVESELVSFDLGFVRLFTRAASDHLRLVTGIGDSMEPTLKWGDLILIDTTDRMLSKQDGIYWINLYGAAGIKRLRAIGPRTILVKSDNPGVDDQEVEAEDLRIEGRAIWATRGL” here?
Answer: not soluble

Question: For “MGSDKIHHHHHHVTRVAVVGDSLSAYAVAAVLTKLGYNCDLLCYPTKSNFYGPSLVLNDVSETLLSELFPDVNLGVDSQRLTHRWVCWGTQPVQIEQPALAIRSNSLLELLRNSKVMQHTRMIDASQLTAQQISQKYAWTVYTKHKQRGMPTLGEPCLQNAARSLLPRSRSVPQGSGTPTAGVAIALSESSQSLIGGQRVIVTAEVQDTPKSAYTCYMESLAEGWLFYAPVNGSGAMVQACLPITPANPRRALLECLYKSTTISTFVNDLQKVNCFFSAPYLEWPLCGLGWLMVGEPAIKIDPVSGEGTPFALRSAILAGAVIDAILSDRIPDISALNHYQTRLTHSFISHLRGCIQFYREVFSTNLAWQAEINQMIDIAETLSTQLEQQAVNVLNYRLIDFELHIG”, which “soluble on expression in E. coli” value is on record?
Answer: not soluble

Question: With “MGSDKIHHHHHHVTTIRFLNGLNTIGGNIVEFATKTSRVIMDFGVAADLSNETVSSAIDNGKLPHVPELFFDQPDVYTHEAIFISHLHIDHMGALQYLKKPIPIYLSEPSYKLYQLLIKLGIEKPVANLHPLAYEQPLTIGDLTVTGFHSDHDEPGVMALLVDDGSRRYAHSGDVRLNGPHAKRVHAWAKRFNQEKLSLFMLEGTSFSFDTAAPVEDQDHPSIPLTEMSLQKQFQTVLAESPTLVVINPYIRNYERLASFQASAHTAGRQLVWEPDDAAVLTTMTDQKPDAILGQTISLTDIARDPQHYVLQNSFDHLERLTDMPITTYIHSNGEPLGDYDPRFAQLKDWLEAHHIPLQFMNASGHASREDLITLAKEVNPRTIVPWHSFHPEREAEALDTQTNAAVVLPERDLYYDFDELSEDE” as the sequence, how does the “soluble on expression in E. coli” value read?
Answer: not soluble

Question: With “MGSDKIHHHHHHVVEQSLSVRNGIRHIVWDWNGTLLDDNHANLAAANHVCEMFGVPPMTLEDWRKIFRRPLVPFYEELLGRPLSDEEWQRLDAAYNSYYQRLLPSCRLADGAVDTLHQWRRAGGTQSLLSMAAHDHLVPVITEFGLVSHFTRVDGRQRTTDADSKAEYLAAHLDAQGIDPATVVLIGDIDDDAHAARMVGAKAVLVATGLMSRERLEATGHPVADSLTEAVQLVHG” as the sequence, how does the “soluble on expression in E. coli” value read?
Answer: not soluble

Question: With “MGSDKIHHHHHHVVIGFFKKLFNVRDRNEQAKFTGITTAEKRQQTKPQTPVPAIEVTEHQAVESQLDLSALFYSLLFATPSTTTTGIANNLERSVMQNIEQALSSPQSIAENVLKLPSKILELDKKLGDDNIETQELILLIEQDPLLCVEVLKLCNSPAFKRADTDVSSIQQALVQVGRQQLRQFITACLARELIDIKPIYFRRFGAEIWRHSMQVAFLASELASNEQRDSAFLLGLLHDVGKIAIFKMLVDAFYQAEPGEQPNSILFKQVMTTKSLTLSALLARSWQLSQHFETPLTLLANTNIKPTDGMTLLIWKANIISECSMLLQVDKLPQPALAVLLAQVECSEEDFIELHQKLIQF” as the sequence, how does the “soluble on expression in E. coli” value read?
Answer: not soluble

Question: For “MGSDKIHHHHHHVYKALFFDVDDTLLNFEQCSREALGKTFRHFSMDYDDTVYELFRSIDQRLWLQQKQGELTVQDVINLRFQELFKQLQLGCSHIPLQTMFQERLAEEFFTEPHAAESLGYLSARYQLFVTSNGILKTQLKRLELAGLLPYFTDVFVSDHIGHEKPSVRFFEECLQRSRLKPSEVLLIGDSLEADMVGAQTSKMDSCWYNPKHRNTDSDVEIDYIISDLLQLKDILQ”, which “soluble on expression in E. coli” value is on record?
Answer: not soluble

Question: For “MGSDKIHHHHHHYRPLFDKDLSNADYDSSVWTFKNGILTATADQSIWTKVQYENFILDLEFKTDVNTNSGVVIYCTDKGNWIPSSIEIQIADDHHPEWQSYPEYWRCGSIYGHKGANEQLVVKKPGEWNRMIITAKGQQIDIELNGKHIVSANLADWTSGTTNPDGTEIPEWLPIPYANMPTKGYIGLQGKHGESNIWFRNIQLKQL”, which “soluble on expression in E. coli” value is on record?
Answer: not soluble

Question: Which “soluble on expression in E. coli” value does the source give for “MGSKRRFSSEHPDPVETSIPEQAAEIAEELSKQHPLPSEEPLVHHDAGEFKGLQRHHTSAEEAQKLEDGKINPFTGREFTPKYVDILKIRRELPVHAQRDEFLKLYQNNQIMVFVGETGSGKTTQIPQFVLFDEMPHLENTQVACTQPRRVAAMSVAQRVAEEMDVKLGEEVGYSIRFENKTSNKTILKYMTDGMLLREAMEDHDLSRYSCIILDEAHERTLATDILMGLLKQVVKRRPDLKIIIMSATLDAEKFQRYFNDAPLLAVPGRTYPVELYYTPEFQRDYLDSAIRTVLQIHATEEAGDILLFLTGEDEIEDAVRKISLEGDQLVREEGCGPLSVYPLYGSLPPHQQQRIFEPAPESHNGRPGRKVVISTNIAETSLTIDGIVYVVDPGFSKQKVYNPRIRVESLLVSPISKASAQQRAGRAGRTRPGKCFRLYTEEAFQKELIEQSYPEILRSNLSSTVLELKKLGIDDLVHFDFMDPPAPETMMRALEELNYLACLDDEGNLTPLGRLASQFPLDPMLAVMLIGSFEFQCSQEILTIVAMLSVPNVFIRPTKDKKRADDAKNIFAHPDGDHITLLNVYHAFKSDEAYEYGIHKWCRDHYLNYRSLSAADNIRSQLERLMNRYNLELNTTDYESPKYFDNIRKALASGFFMQVAKKRSGAKGYITVKDNQDVLIHPSTVLGHDAEWVIYNEFVLTSKNYIRTVTSVRPEWLIEIAPAYYDLSNFQKGDVKLSLERIKEKVDRLNELKQGKNKKKSKHSKKHHHHHH” here?
Answer: soluble

Question: Which “soluble on expression in E. coli” value does the source give for “MGSKTKKSFTVLLAFIMSFSVTGCFDKREIDDLVNPIAIGFDKGSNHSVRMTLQIAIPTKVAGGGEGGGGGGGEESVSYTTVEAPSIYSGLNMINSYVSKQLNMSQIKVLVFSEELAREGIEKYINALMRGREFRPHSYVIVARGTGNAAERYLRAVEPELESNPAKYYEMLLSAYTYTGFTANTSLTNFYKNMVSESTQPLAVLADISKFEKSDDINMDNSSYQEKGREFPLEGDFKAGDMPKVGTIKSEVMGLAVFNGSKMVGELDGEETQLQLMLEGNFGYSYVTIPDPEAEDYVVLLNIKQNRKPKRKVEIVDEKPHIKVNIYLEADILSIQSGVNYESLEKVKILEDAAEKFFEKGFLRMLKKTAKEFKSDIAGFGKEMKGKFLTWDEWTNFNWIEKYPDSEFEVDVDLKIRRPGLMLRTYPAAGTEVGEE” here?
Answer: soluble

Question: Which “soluble on expression in E. coli” value does the source give for “MGSRDDEYDYLFKVVLIGDSGVGKSNLLSRFTRNEFNLESKSTIGVEFATRSISVEGKTVKAQIWDTAGQERYRAITSAYYRGAVGALLVYDIAKHVTYENVERWLKELRDHADQNIVIMLVGNKSDLRHLRAVPTDEAKIYAERNQLSFIETSALDSTNVEAAFTNILTEIYKSVSNKHVGTDRQGYGGGSGTIIPSPASDPPKKQCCIP” here?
Answer: not soluble

Question: For “MGSRENLYFQGLEHHHHHHHMKNVKTLIAAAILSSMSFASFAAVEVQSTPEGQQKVGTISANAGTNLGSLEEQLAQKADEMGAKSFRITSVTGPNTLHGTAVIYK”, which “soluble on expression in E. coli” value is on record?
Answer: soluble

Question: Which “soluble on expression in E. coli” value does the source give for “MGSRNIVRAVLEEKKTEAITEVDEKGITCVMKFGGSSVASAERMKEVADLILTFPEESPVIVLSAMGKTTNNLLLAGEKAVSCGVSNASEIEELSIIKELHIRTVKELNIDPSVILTYLEELEQLLKGIAMMKELTLRTRDYLVSFGECLSTRIFAAYLNTIGVKARQYDAFEIGFITTDDFTNGDILEATYPAVAKRLYDDWMHDPAVPIVTGFLGKGWKTGAVTTLGRGGSDLTATTIGKALGLKEIQVWKDVDGVLTCDPTIYKRATPVPYLTFDEAAELAYFGAQVLHPQSMRPAREGEIPVRVKNSYNPKAPGTIITKTRDMTKSILTSIVLKRNVTMLDIASTRMLGQVGFLAKVFSIFEELGISVDVVATSEVSISLTLDPSKLWSRELIQQELDHVVEELEKIAVVNLLKGRAIISLIGNVQHSSLILERAFHVLYTKGVNVQMISQGASKVNISFIVNEAEAEGCVQALHKSFFESGDLSELLIQPRLGNGSPVRTLQVEN” here?
Answer: soluble

Question: For “MGSSHHHHHHGGFSQSCLPNWIMHGKSCYLFSFSGNSWYGSKRHCSQLGAHLLKIDNSKEFEFIESQTSSHRINAFWIGLSRNQSEGPWFWEDGSAFFPNSFQVRNAVPQESLLHNCVWIHGSEVYNQICNTSSYSICEKEL”, which “soluble on expression in E. coli” value is on record?
Answer: soluble

Question: With “MGSSHHHHHHGGTGENLYFQGGSGGTCPSISQSEVGIVETCGRFSYTADPGIHCLWCGSVLVRRVTLRLQEYELKVESKTKDNVFVTLSLVIQYQVSPDKLAEVYYACDSSLQCMRDYVLNSIRAKIPLYKLEALYVERGTISQQLKDEVDAIIGTYGIEIVSALISDIDPGAEITKAMNEVQKFQRLRVASVDAAETEKLKRVRAAEARCEARRLSGEGLAEQRKAIVAGLMHSIEDVQSEVRDLTSNDATNMLLMNQYYDTLQAIAANSSSSVIMLESNGGLEKVAAQLRQGVTHMMR” as the sequence, how does the “soluble on expression in E. coli” value read?
Answer: not soluble
